Test results reported in EP1486509A2, “Radiolabeled annexin-galactose cluster conjugates” (NEORX CORPORATION, priority 1994, dated 1996).

What was measured:
[1] = tested on: atrial thrombi and injured left atrium; parameters: species or system Yorkshire swine; conditions: in vivo
Description: Image acquisition was performed as described below. […] A final blood sample was taken for well counting.
D. Sample Collection. […] Each vial was counted for 1 minute.
Well counting ratios were obtained for a variety of tissue samples. For the injured tissues and thrombi, multiple specimens were usually taken from the same animal. In those cases, the maximum ratio for any one specimen is reported, as well as the average of all specimens taken. The maximum for each animal was averaged across all animals and is reported as the Maximum Anx-V Ratio.

[2] = Blood clearance in the swine model; conditions: in vivo
Excerpt: An animal model, as previously described in Example III, was employed to evaluate blood clearance of the molecules.

Substance: Tc-99m-annexin V: Annexin V radiolabeled with Tc-99m by a diamide dimercaptide N2S2 chelate (Example I)
- highest non-target localization [1]: kidney
- %ID/g a [2]: %ID/g a = 0.0389
- %ID/g b [2]: %ID/g b = 0.0300
